# B1: CPEB3 Ribozyme (parent)
# chain: GGGGGCCACAGCAGAAGCGUUCACGUCGCGGCCCCUGUCAGAUUCUGGUGAAUCUGCGAAUUCUGCUGU
# Variants of: B1
# Experiment: self-cleavage, relative activity (ratio to wild type); higher = more cleavage; co-transcriptional
row,Variant,self-cleavage
1,GGGGGCCCCAGCUGAAGCGUUCACGUCGCGGCCCCUGUCAGAUUCUGGUGAAUCUGCGAAUUCUGCUGU [A8C A13U],0.849
2,GGGGGCCCCAGCGGAAGCGUUCACGUCGCGGCCCCUGUCAGAUUCUGGUGAAUCUGCGAAUUCUGCUGU [A8C A13G],0.987
3,GGGGGCUACAGCAGAAGCGUUCACGUCGCGGCCCCUGUCAGAUUCUGGUGAAUCGGCGAAUUCUGCUGU [C7U U55G],0.706
4,GGGGGCUACAGCAGAAGCGUUCACGUCGCGGCCCCUGUCAGAUUCUGGUGAAUCCGCGAAUUCUGCUGU [C7U U55C],0.744
5,GGGGGCUACAGCAGAAGCGUUCACGUCGCGGCCCCUGUCAGAUUCUGGUGAACCUGCGAAUUCUGCUGU [C7U U53C],0.784
6,GGGGGCUACAGCAGAAGCGUUCACGUCGCGGCCCCUGUCAGAGUCUGGUGAAUCUGCGAAUUCUGCUGU [C7U U43G],0.757
7,GGGGGCUACAGCAGAAGCGUUCACGUCACGGCCCCUGUCAGAUUCUGGUGAAUCUGCGAAUUCUGCUGU [C7U G28A],0.123
8,GGGGGCUACAGCAGAAGCGUUCACGUCGCGGCCCCUGUCAGAUUCUGGUGAAUCUGCGACUUCUGCUGU [C7U A60C],0.231
9,GGGGGCGACAGCAGAAGCGUACACGUCGCGGCCCCUGUCAGAUUCUGGUGAAUCUGCGAAUUCUGCUGU [C7G U21A],0.395
10,GGGGGCGACAGCAGAAGCGUGCACGUCGCGGCCCCUGUCAGAUUCUGGUGAAUCUGCGAAUUCUGCUGU [C7G U21G],0.119
11,GGGGGCUACAGGAGAAGCGUUCACGUCGCGGCCCCUGUCAGAUUCUGGUGAAUCUGCGAAUUCUGCUGU [C7U C12G],0.822
12,GGGGGCUACAGUAGAAGCGUUCACGUCGCGGCCCCUGUCAGAUUCUGGUGAAUCUGCGAAUUCUGCUGU [C7U C12U],0.94
13,GGGGGCGACAGCAGAAGCGUUCACGUCGCGGCCCCUGUCAGAUUCUGGUGAAUCUUCGAAUUCUGCUGU [C7G G56U],0.177
14,GGGGGCUACAGCAGAAGCGUUCACGUCGCGGCCCCUGUCAGAUUCUGGUGAAUCUGCGAAUUGUGCUGU [C7U C63G],0.603
15,GGGGGCUACAGCAGAAGCGUUCACGUCGCGGCCCCUGUCAGGUUCUGGUGAAUCUGCGAAUUCUGCUGU [C7U A42G],0.908
16,GGGGGCUACAGCAGAGGCGUUCACGUCGCGGCCCCUGUCAGAUUCUGGUGAAUCUGCGAAUUCUGCUGU [C7U A16G],0.908
17,GGGGGCUACAGCAGAAGCGUUCACGUCGCAGCCCCUGUCAGAUUCUGGUGAAUCUGCGAAUUCUGCUGU [C7U G30A],0.957
18,GGGGGCUACAGCAGAAGCGUUCACGUCGCCGCCCCUGUCAGAUUCUGGUGAAUCUGCGAAUUCUGCUGU [C7U G30C],0.608
19,GGGGGCUACAGCAGAAGCGUUCACGUCGCUGCCCCUGUCAGAUUCUGGUGAAUCUGCGAAUUCUGCUGU [C7U G30U],0.814
20,GGGGGCGACAGCAGAAGCGUUCACGUCGCGGCCCCUGUCAGAUUCUGGAGAAUCUGCGAAUUCUGCUGU [C7G U49A],0.444

row,Variant,self-cleavage
1,GGGGGCGACAGCAGAAGCGUUCACGUCGCGGCCCCUGUCAGAUUCUGGCGAAUCUGCGAAUUCUGCUGU [C7G U49C],0.491
2,GGGGGCUACAGCAGAAGCGUUUACGUCGCGGCCCCUGUCAGAUUCUGGUGAAUCUGCGAAUUCUGCUGU [C7U C22U],0.155
3,GGGGGCUACAGCAGAAGCGUUCACGUCGCGGCCCAUGUCAGAUUCUGGUGAAUCUGCGAAUUCUGCUGU [C7U C35A],0.194
4,GGGGGCUACAGCAGAAGCGUUCACGUCGCGGCCCGUGUCAGAUUCUGGUGAAUCUGCGAAUUCUGCUGU [C7U C35G],0.28
5,GGGGGCUACAGCAGAAGCGUUCACGUCGCGGCCCCUGUCAGAUUCUGGUGAAUCUGGGAAUUCUGCUGU [C7U C57G],0.155
6,GGGGGCUACAACAGAAGCGUUCACGUCGCGGCCCCUGUCAGAUUCUGGUGAAUCUGCGAAUUCUGCUGU [C7U G11A],0.816
7,GGGGGCUACACCAGAAGCGUUCACGUCGCGGCCCCUGUCAGAUUCUGGUGAAUCUGCGAAUUCUGCUGU [C7U G11C],0.663
8,GGGGGCGACAGCAGAAGCGUUCACGUCGCGGCCCCUGUCAGAUUCUGGUGAAUCUGCAAAUUCUGCUGU [C7G G58A],0.281
9,GGGGGCUACAGCAGAAGCGUUCACUUCGCGGCCCCUGUCAGAUUCUGGUGAAUCUGCGAAUUCUGCUGU [C7U G25U],0.089
10,GGGGGCUACAGCAGAAGGGUUCACGUCGCGGCCCCUGUCAGAUUCUGGUGAAUCUGCGAAUUCUGCUGU [C7U C18G],0.104
11,GGGGGCUACAGCAGAAGCGGUCACGUCGCGGCCCCUGUCAGAUUCUGGUGAAUCUGCGAAUUCUGCUGU [C7U U20G],0.17
12,GGGGGCGACAGCAGAAGCGUUCACGUCGCGGCCCCUGUCAGAUUCUGGUGAAUCUGCGAAUUCUGCGGU [C7G U67G],0.75
13,GGGGGCUACAGCAGAAGCGUUCACGUCGCGGCCCCUGUCAGAUGCUGGUGAAUCUGCGAAUUCUGCUGU [C7U U44G],0.914
14,GGGGGCUACAGCAGAAGCGUUCACGUCGCGGCCCCUGUCAGAUACUGGUGAAUCUGCGAAUUCUGCUGU [C7U U44A],0.881
15,GGGGGCGACAGCAGAAGCGUUCACGUCGCGGCCCCUGUCAGAUUCUGGUGAAUCUGCGAAUUCUGCUCU [C7G G68C],0.815
16,GGGGGCGACAGCAGAAGCGUUCACGUCGCGGCCCCUGUCAGAUUCGGGUGAAUCUGCGAAUUCUGCUGU [C7G U46G],0.455
17,GGGGGCUACAGCAGAAGCGUUCACGUCGUGGCCCCUGUCAGAUUCUGGUGAAUCUGCGAAUUCUGCUGU [C7U C29U],0.505
18,GGGGGCUACAGCAGAAGCGUUCACGUCGAGGCCCCUGUCAGAUUCUGGUGAAUCUGCGAAUUCUGCUGU [C7U C29A],0.413
19,GGGGGCUACAGCAGAAGCGUUCACGUCGGGGCCCCUGUCAGAUUCUGGUGAAUCUGCGAAUUCUGCUGU [C7U C29G],0.314

# Reference: the RNAGym collection of RNA variant scans (doi:10.7554/elife.80360)
